These results are taken from publication PMC12216326.

In assay [1] the target is GST-DDX39B (residues 1-428) (human) (UniProt Q13838).
For assay [2] the target is unchanged. This is another data set of the same source.

Sequence of UniProt Q13838 (Q13838 whole entry, the tested form may be a part): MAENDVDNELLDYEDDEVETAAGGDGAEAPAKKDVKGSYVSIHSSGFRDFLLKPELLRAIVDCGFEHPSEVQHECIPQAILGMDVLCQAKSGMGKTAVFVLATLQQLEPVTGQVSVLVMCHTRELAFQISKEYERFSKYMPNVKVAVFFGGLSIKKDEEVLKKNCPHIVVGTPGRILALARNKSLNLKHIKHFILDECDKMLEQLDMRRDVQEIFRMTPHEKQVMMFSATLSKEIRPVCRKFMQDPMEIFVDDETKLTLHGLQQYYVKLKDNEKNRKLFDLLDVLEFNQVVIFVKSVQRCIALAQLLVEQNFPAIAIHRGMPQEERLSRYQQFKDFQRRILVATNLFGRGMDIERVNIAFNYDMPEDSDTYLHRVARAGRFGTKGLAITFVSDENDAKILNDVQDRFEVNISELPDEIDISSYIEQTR

In assay [1], “TREX-2.1 complex (LENG8 residues 490-800/PCID2/DSS1) (from UniProt Q96PV6-2 490-800; Q5JVF3 1-399; P60896 1-70)” came in with an ATPase activity of DDX39B (NADH enzyme-coupled assay with poly(A) RNA), stimulation by TREX-2.1 of 80 fold.
Regarding “TREX-2.1-mut (LENG8 residues 490-800 with 563RLTCAP568 replaced by GGGG/PCID2/DSS1) (from UniProt Q96PV6-2 490-800; Q5JVF3 1-399; P60896 1-70) (complex)”, the ATPase activity of DDX39B, stimulation by TREX-2.1-mut against wild-type TREX-2.1 (fold reduction) in assay [2] was determined as 4.
